{
  "source": "patent US20030113711A1",
  "about": "“Protein kinase peptide substrate determination using peptide libraries” (priority 2001, published 2003)",
  "key": {"[1]": {"tested_on": "CC[C@H](C)[C@H](NC(=O)[C@H](CCC(=O)O)NC(=O)[C@H](CCC(=O)O)NC(=O)[C@H](Cc1c[nH]cn1)NC(=O)[C@H](C)NC(=O)[C@H](CCCNC(=N)N)NC(=O)CCCCCNC(=O)CCCC[C@@H]1SC[C@@H]2NC(=O)N[C@@H]21)C(=O)N[C@@H](Cc1ccc(O)cc1)C(=O)N[C@@H](Cc1c[nH]cn1)C(=O)N[C@@H](Cc1ccccc1)C(=O)N[C@@H](Cc1ccccc1)C(=O)N[C@@H](Cc1ccccc1)C(=O)N[C@@H](C)C(=O)N[C@@H](CCCCN)C(=O)N[C@@H](CCCCN)C(=O)N[C@@H](CCCCN)C(N)=O", "experiment": "Two-substrate kinetic comparison with known substrate, peptide and ATP varied simultaneously", "type": "biochemical", "conditions": "other: ErbB-2; peptide and ATP concentrations varied simultaneously, two-substrate fit", "method": "(§1) In a separate experiment, the kinetic parameters of both peptide number 1 shown in Table 2, and a peptide with the sequence Biotin-Ahx-G-G-M-E-D-I-Y-F-E-F-M-G-G-K-K-K-amide (SEQ ID NO: 17), which has been previously identified as an ErbB-2 substrate (Jan et. al., (2000), Biochemistry 39: 9786-803), were determined and compared. In this experiment, both peptide and ATP concentrations were varied, and the resulting data was simultaneously fit to an equation representing a two-substrate enzyme reaction using SIGMAPLOT®. Data was collected using the kinases ErbB-2, ErbB-4, and EGFR. The results of this experiment are shown in Table 3 and indicate that for all three kinases tested, peptide number 1 shown in Table 2 is kinetically at least equivalent (based on kcat/Km values) to the known peptide substrate identified by Jan et al."}, "[2]": {"tested_on": "CC[C@H](C)[C@H](NC(=O)[C@H](CC(=O)O)NC(=O)[C@H](CCC(=O)O)NC(=O)[C@H](CCSC)NC(=O)CNC(=O)CNC(=O)CCCCCNC(=O)CCCC[C@@H]1SC[C@@H]2NC(=O)N[C@@H]21)C(=O)N[C@@H](Cc1ccc(O)cc1)C(=O)N[C@@H](Cc1ccccc1)C(=O)N[C@@H](CCC(=O)O)C(=O)N[C@@H](Cc1ccccc1)C(=O)N[C@@H](CCSC)C(=O)NCC(=O)NCC(=O)N[C@@H](CCCCN)C(=O)N[C@@H](CCCCN)C(=O)N[C@@H](CCCCN)C(N)=O", "experiment": "Two-substrate kinetic comparison with known substrate, peptide and ATP varied simultaneously", "type": "biochemical", "conditions": "other: ErbB-2; peptide and ATP concentrations varied simultaneously, two-substrate fit", "method": "as §1"}},
  "data": [
    {"substance": "ErbB-2 (Homo sapiens)", "values": [
      {"measurement": "Km", "setting": "[1]", "value": 58, "unit": "µM"},
      {"measurement": "kcat", "setting": "[1]", "value": 0.0233, "unit": "s⁻¹"},
      {"measurement": "kcat/Km", "setting": "[1]", "value": 417, "unit": "M⁻¹ s⁻¹"},
      {"measurement": "Km", "setting": "[2]", "value": 157, "unit": "µM"},
      {"measurement": "kcat", "setting": "[2]", "value": 0.0367, "unit": "s⁻¹"},
      {"measurement": "kcat/Km", "setting": "[2]", "value": 233, "unit": "M⁻¹ s⁻¹"}
    ]}
  ]
}
